Reference: publication PMC4595793, “Beauveria bassiana Lipase A expressed in Komagataella (Pichia) pastoris with potential for biodiesel catalysis” (Frontiers in Microbiology, 2015)

Substrate: CCCC(=O)Oc1ccc([N+](=O)[O-])cc1
Test: spectrophotometric p-nitrophenol release
Type: biochemical, Beauveria bassiana
Settings: 25 mM phosphate buffer pH 6.0, 50°C, 2 min, free enzyme, 0.05% Triton X-100 in the general assay, Hill coefficient n printed 1.46
Text: spectrophotometric p-nitrophenol release on BbLA (Beauveria bassiana lipase A)

B1: BbLA (Beauveria bassiana lipase A) (Beauveria bassiana ARSEF 2860) (protein)
chain: LSADIDGAPLIHLDYATYRGSRVAGAGVDQFLGMRFAKPPLGDLRFRAPEEPFHEDQVQDATKLGALCVGTVDGSGVSPNDVFGEDCLFANLFKPANATTASKLPVWVFIQGGGYAHNSNGNYNGTQIVQQSGGNVVFVSFNYRVGVLGFLASEEVRKDGALNAGLLDQRLFLKWVQKYIGQFGGDPNHVVIHGDSAGGGSVSHHLTAYGGNDKENLFVGGIPESPFWPTQRKVDQMEFQYTRLLRDTKCDSLDCLRKLDVGALGNASQPSPFPEAHTEDPAPLWYWLPVIDGDLVQDNMYKQFLTGRFKRVPLLVGADTDEGTLFAVNASTETEVSSFLRANYPRLQEWQLDIVSTIYPKMKPLPKHAAYFPSAAAVYGDSTFVCAGNTMSDAISAFVGPDKLWNYRYNVADPEQVAEGFGVPHVSELGAIFGPDNIRGHEAKSLRTTNAPIVPVTMAYFTSFVRFLDPNTSRQPGSPLWQNWGAFVGEQGQRMRLETNNTAMETVPFDLVTKCALWKLLAESMDV
notes: 19-residue signal peptide removed (precursor 546 aa, 1,641 bp); alpha-factor secretion signal, C-terminal 6His (554 aa printed; b43 says N-terminal His); secreted by Komagataella pastoris GS115, N-glycosylated, about 78 kDa (60 kDa after EndoHf); Octyl-sepharose purified
Km: 0.5546 µM
